Measurements reported in the supplement of paper PMC9170038.

Tested on: MS2 coat protein
Assay: apparent KD of MS2 coat protein; designed switch direction (-1 OFF switch, 1 ON switch): -1; higher = weaker reporter binding
In short: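 Apparent KD, taken as the median over clusters for each design, was obtained by curve-fitting normalised cluster fluorescence. Designed RNA switches had been transcribed on Illumina chips by stalled E. coli RNA polymerase and titrated with SNAP-549-labelled MS2 coat protein, doubling from 0.7 or 1.5 nM to 3 µM.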

[1] = input ligand: microRNA oligo, concentration not stated
[2] = Eterna round: R95, input ligand: FMN 200 uM
[3] = Eterna round: R95, input ligand: microRNA oligo, concentration not stated
[4] = Eterna round: R95, input ligand: none

Row | Sequence | apparent KD of MS2 coat protein (input ligand: FMN 200 uM) | apparent KD of MS2 coat protein [1] | apparent KD of MS2 coat protein (input ligand: none) | apparent KD of MS2 coat protein [2] | apparent KD of MS2 coat protein [3] | apparent KD of MS2 coat protein [4]
1 | UUGUUUUCCGCAGGAUAUGCUCCUCUAUUACUAGCAGAAGGGCGUUGAACAUGAGGAUCACCCAUGUAUGUAAUUGCUUAUUGC [JR_ExcNG1_Sub074] (Eterna round: R96, puzzle: Exclusion NG 1) | 19.3 nM | 17.5 nM | 24.4 nM | – | – | –
2 | UAUAUAUAGUAAGGAUAUGUAUUAUUUUUAUAAACAGAAGGUACUGACAUGAGGAUCACCCAUGUUUUAGUGUGGGCAUGUAGA [JMF's solution 73] (Eterna round: R96, puzzle: Exclusion NG 1) | – | 36.9 nM | – | – | – | –
3 | UUUAAUUUUUUUUUUUUACAAGCUUUUUGCUCGUCUUAUACAUGAGGAUCACCCAUGUAAAUGGAAGGUAAAUUAUC [JMF 67] (puzzle: Sensor v3, turn-off variant 2) | – | – | – | 15.5 nM | 17.3 nM | 13.5 nM
4 | GCUAGGAAUGUCAGGAUAUGCUGAUCCUUGGAUCAGCAGAAGGGACAUGAGGAUCACCCAUGUGCUAACCUAGC [Mat - Exclusion 4 - JL Mod - D6] (Eterna round: R97, puzzle: Brourd's mod of Exclusion 4) | 177 nM | – | 30.8 nM | – | – | –
5 | GGUCGACAUGAGGAUCACCCAUGUCAGGAUAUCUACAUUGAAGCUUCGGCUUCAAUGUAGAGAAGGGACAUAAU [E1/14-B1] (Eterna round: R97, puzzle: Exclusion 1) | 35.3 nM | – | 30.1 nM | – | – | –
6 | CCUGUACAUGAGGAUCACCCAUGUUAGGAUAUCUCGCCGUCGGCUUGCCGACGGUAUUAGAGAAGGGACAAGGG [JL Tixe mod 4] (puzzle: Exclusion 1) | – | – | – | – | 31 nM | –
7 | UUUGCAAGCUUAAGAUCCCACAUGAGGAUCACCCAUGUUGCUGCCGUGAGGUAGCUUUUAACUUAUGCUCGUCUUAU [JL TOV1 3.46] (Eterna round: R97, puzzle: Sensor, turn-off variant 1) | 95.7 nM | – | 115 nM | – | – | –
8 | AGAAAUGCCCAUGGCCGCAAGCUCUUUGCUUGUCUUACCACAUGAGGAUCACCCAUGUGACAUGGGCUCCUUAUAAU [Riquarge] (puzzle: Sensor v3, turn-off variant 2) | – | – | – | 13.9 nM | 9.77 nM | 12 nM
9 | ACAUGAGGAUCACCCAUGUGAAAAGAAUGGCUGACACAGAGAUAGGAUAUGCGUGCAUAUCUAACGCAGAAGGGUCAUGACUGG [Deportation 81 - Jieux - Exclusion NG 3] (Eterna round: R96, puzzle: Exclusion NG 3) | 25.9 nM | 22.4 nM | 28.3 nM | – | – | –
10 | GCAAGCUUUUGCUCGUCUUACAUGAGGAUCACCCAUGUCGGGUGAUUGCUUCGUGCCCGGGCCCGCCGGGCCCGGGC [-41.5, -70.8 kcal, A 12%] (Eterna round: R97, puzzle: Sensor, turn-off variant 1) | 76.9 nM | – | 97.8 nM | – | – | –
11 | UUUUGGCAUGUAGGAUAUGGGUCCGAUUAGGAUUUAGAAGGACAUGAGGAUCACCCAUGUGCACUUAAUUGGUCUUUUUUUUUU [EXclNG1-LROPPY16] (Eterna round: R96, puzzle: Exclusion NG 1) | 37.7 nM | 23.5 nM | 36.5 nM | – | – | –
12 | CGCUGGACAGGAUAUGUUCUUGGGCACUUGAGGAUCACCCAAGUCAUCGGGACAACAGGCACAGAAGGGUUUAUGG [salish99_ex5_r4_025] (Eterna round: R97, puzzle: Exclusion 5) | 31.6 nM | – | 43.9 nM | – | – | –
13 | AAUAACAGAGGAUAUACUAUUUUAUGUGUUUGUUGUUUUGAACAUGAGGAUCACCCAUGUAGAAGGCUGAAUAA [JMF 26] (puzzle: Exclusion 2) | – | – | – | – | 22.1 nM | –
